Source: article PMC9482650, “Quantitative fragmentomics allow affinity mapping of interactomes” (Nature Communications, 2022)

B1: SLCO2B1, O94956 (peptide)
chain: PGKKPEDSRV
B2: JAM2, P57087 (peptide)
chain: DFKHTKSFII

molecular target: LNX1_3, Q8TBB1; assay: holdup assay; design: key: below the threshold = too weak to quantify, mostly under pKd 3.1 to 4; conditions: plain residues with an end cap or a label only (N-terminal biotin on a linker: ado-ado)
Sequence (Q8TBB1 500-596): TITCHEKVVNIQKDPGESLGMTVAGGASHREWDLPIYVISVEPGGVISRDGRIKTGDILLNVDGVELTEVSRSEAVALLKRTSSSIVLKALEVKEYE

Binder | pKd
B1 | below the threshold
B2 | below the threshold

molecular target: LNX1_1, Q8TBB1; assay: holdup assay; design: key: below the threshold = too weak to quantify, mostly under pKd 3.1 to 4; conditions: plain residues with an end cap or a label only (N-terminal biotin on a linker: ado-ado)
Sequence (Q8TBB1 261-371): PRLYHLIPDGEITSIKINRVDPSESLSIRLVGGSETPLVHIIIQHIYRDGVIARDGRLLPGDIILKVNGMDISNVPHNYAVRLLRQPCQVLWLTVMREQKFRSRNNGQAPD

Binder | pKd
B1 | below the threshold
B2 | below the threshold

molecular target: DLG4_3, P78352; assay: holdup assay; design: key: below the threshold = too weak to quantify, mostly under pKd 3.1 to 4; conditions: plain residues with an end cap or a label only (N-terminal biotin on a linker: ado-ado)
Sequence (P78352 306-403): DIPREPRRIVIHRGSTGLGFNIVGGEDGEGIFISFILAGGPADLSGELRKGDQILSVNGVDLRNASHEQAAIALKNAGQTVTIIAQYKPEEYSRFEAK

Binder | pKd
B1 | below the threshold
B2 | below the threshold

molecular target: IL16_4, Q14005; assay: holdup assay; design: key: below the threshold = too weak to quantify, mostly under pKd 3.1 to 4; conditions: plain residues with an end cap or a label only (N-terminal biotin on a linker: ado-ado)
Sequence (Q14005 1229-1329): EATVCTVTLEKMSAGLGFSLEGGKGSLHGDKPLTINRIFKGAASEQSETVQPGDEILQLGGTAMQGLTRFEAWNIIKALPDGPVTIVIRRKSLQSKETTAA

Binder | pKd
B1 | below the threshold
B2 | below the threshold

molecular target: MAGI2_6, Q86UL8; assay: holdup assay; design: key: below the threshold = too weak to quantify, mostly under pKd 3.1 to 4; conditions: plain residues with an end cap or a label only (N-terminal biotin on a linker: ado-ado)
Sequence (Q86UL8 1141-1229): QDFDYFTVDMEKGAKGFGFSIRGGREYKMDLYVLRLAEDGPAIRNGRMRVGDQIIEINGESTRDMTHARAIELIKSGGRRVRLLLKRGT

Binder | pKd
B1 | below the threshold
B2 | below the threshold

molecular target: T1, APBA3_1, O96018; assay: holdup assay; design: key: below the threshold = too weak to quantify, mostly under pKd 3.1 to 4; conditions: plain residues with an end cap or a label only (N-terminal biotin on a linker: ado-ado)
T1 sequence (O96018 389-490, limits assumed, looked up): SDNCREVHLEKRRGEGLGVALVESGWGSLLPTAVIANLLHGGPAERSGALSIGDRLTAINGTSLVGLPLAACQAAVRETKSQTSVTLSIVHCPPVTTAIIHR

Binder | pKd
B1 | below the threshold
B2 | below the threshold

molecular target: SCRIB_3, Q14160; assay: holdup assay; design: key: below the threshold = too weak to quantify, mostly under pKd 3.1 to 4; conditions: plain residues with an end cap or a label only (N-terminal biotin on a linker: ado-ado)
Sequence (Q14160 999-1103): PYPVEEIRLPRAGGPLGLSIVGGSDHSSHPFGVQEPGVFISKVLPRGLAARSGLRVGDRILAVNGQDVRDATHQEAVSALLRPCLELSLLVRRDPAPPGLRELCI

Binder | pKd
B1 | below the threshold
B2 | 3.65

molecular target: LNX1_2, Q8TBB1; assay: holdup assay; design: key: below the threshold = too weak to quantify, mostly under pKd 3.1 to 4; conditions: plain residues with an end cap or a label only (N-terminal biotin on a linker: ado-ado)
Sequence (Q8TBB1 371-470): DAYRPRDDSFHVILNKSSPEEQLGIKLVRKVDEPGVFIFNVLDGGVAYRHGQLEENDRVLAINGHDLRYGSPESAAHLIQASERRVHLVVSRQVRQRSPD

Binder | pKd
B1 | below the threshold
B2 | below the threshold

molecular target: T2, GRIP1_5, Q9Y3R0; assay: holdup assay; design: key: below the threshold = too weak to quantify, mostly under pKd 3.1 to 4; conditions: plain residues with an end cap or a label only (N-terminal biotin on a linker: ado-ado)
T2 sequence (Q9Y3R0 568-668, limits assumed, looked up): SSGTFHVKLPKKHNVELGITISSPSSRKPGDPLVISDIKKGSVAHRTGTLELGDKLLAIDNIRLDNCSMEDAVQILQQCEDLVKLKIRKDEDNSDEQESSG

Binder | pKd
B1 | below the threshold
B2 | below the threshold

molecular target: GRIP2_4, Q9C0E4; assay: holdup assay; design: key: below the threshold = too weak to quantify, mostly under pKd 3.1 to 4; conditions: plain residues with an end cap or a label only (N-terminal biotin on a linker: ado-ado)
Sequence (Q9C0E4 446-548): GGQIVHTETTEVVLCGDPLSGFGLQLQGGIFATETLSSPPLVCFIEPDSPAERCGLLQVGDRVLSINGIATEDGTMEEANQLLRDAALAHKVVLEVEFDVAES

Binder | pKd
B1 | below the threshold
B2 | below the threshold

molecular target: MAGI1_1, Q96QZ7; assay: holdup assay; design: key: below the threshold = too weak to quantify, mostly under pKd 3.1 to 4; conditions: plain residues with an end cap or a label only (N-terminal biotin on a linker: ado-ado)
Sequence (Q96QZ7 1-106): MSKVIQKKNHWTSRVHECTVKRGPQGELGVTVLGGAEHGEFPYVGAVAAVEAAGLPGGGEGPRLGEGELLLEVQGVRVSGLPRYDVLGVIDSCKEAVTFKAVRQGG

Binder | pKd
B1 | below the threshold
B2 | below the threshold

molecular target: GIPC2, Q8TF65; assay: holdup assay; design: key: below the threshold = too weak to quantify, mostly under pKd 3.1 to 4; conditions: plain residues with an end cap or a label only (N-terminal biotin on a linker: ado-ado)
Sequence (Q8TF65 112-203): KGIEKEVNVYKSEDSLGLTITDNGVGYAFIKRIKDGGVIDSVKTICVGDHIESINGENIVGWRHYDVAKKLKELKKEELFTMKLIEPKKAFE

Binder | pKd
B1 | below the threshold
B2 | below the threshold

molecular target: T3, PDZRN3_1, Q9UPQ7; assay: holdup assay; design: key: below the threshold = too weak to quantify, mostly under pKd 3.1 to 4; conditions: plain residues with an end cap or a label only (N-terminal biotin on a linker: ado-ado)
T3 sequence (Q9UPQ7 244-349, limits assumed, looked up): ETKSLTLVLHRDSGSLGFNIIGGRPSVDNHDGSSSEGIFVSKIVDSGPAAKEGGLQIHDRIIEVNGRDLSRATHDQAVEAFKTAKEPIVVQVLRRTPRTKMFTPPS

Binder | pKd
B1 | below the threshold
B2 | below the threshold

molecular target: PICK1, Q9NRD5; assay: holdup assay; design: key: below the threshold = too weak to quantify, mostly under pKd 3.1 to 4; conditions: plain residues with an end cap or a label only (N-terminal biotin on a linker: ado-ado)
Sequence (Q9NRD5 17-115): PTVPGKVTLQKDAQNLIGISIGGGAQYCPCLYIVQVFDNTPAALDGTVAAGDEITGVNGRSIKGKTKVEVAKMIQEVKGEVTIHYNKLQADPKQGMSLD

Binder | pKd
B1 | below the threshold
B2 | below the threshold

molecular target: MAGI2_5, Q86UL8; assay: holdup assay; design: key: below the threshold = too weak to quantify, mostly under pKd 3.1 to 4; conditions: plain residues with an end cap or a label only (N-terminal biotin on a linker: ado-ado)
Sequence (Q86UL8 915-1017): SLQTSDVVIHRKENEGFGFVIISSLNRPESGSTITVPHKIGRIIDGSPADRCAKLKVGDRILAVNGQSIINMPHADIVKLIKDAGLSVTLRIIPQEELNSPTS

Binder | pKd
B1 | below the threshold
B2 | below the threshold

molecular target: GRIP2_7, Q9C0E4; assay: holdup assay; design: key: below the threshold = too weak to quantify, mostly under pKd 3.1 to 4; conditions: plain residues with an end cap or a label only (N-terminal biotin on a linker: ado-ado)
Sequence (Q9C0E4 934-1023): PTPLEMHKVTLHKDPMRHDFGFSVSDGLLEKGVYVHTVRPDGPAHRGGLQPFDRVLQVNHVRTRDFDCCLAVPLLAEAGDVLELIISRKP

Binder | pKd
B1 | below the threshold
B2 | 3.88

molecular target: T4, TX1BP3, O14907; assay: holdup assay; design: key: below the threshold = too weak to quantify, mostly under pKd 3.1 to 4; conditions: plain residues with an end cap or a label only (N-terminal biotin on a linker: ado-ado)
T4 sequence (O14907 10-122, limits assumed, looked up): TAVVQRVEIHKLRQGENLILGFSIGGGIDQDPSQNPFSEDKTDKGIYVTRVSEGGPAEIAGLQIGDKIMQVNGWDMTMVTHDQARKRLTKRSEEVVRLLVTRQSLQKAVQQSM

Binder | pKd
B1 | 3.54
B2 | below the threshold

molecular target: SNX27, Q96L92; assay: holdup assay; design: key: below the threshold = too weak to quantify, mostly under pKd 3.1 to 4; conditions: plain residues with an end cap or a label only (N-terminal biotin on a linker: ado-ado)

Binder | pKd
B1 | 4.43
B2 | below the threshold

molecular target: T5, RADIL, Q96JH8; assay: holdup assay; design: key: below the threshold = too weak to quantify, mostly under pKd 3.1 to 4; conditions: plain residues with an end cap or a label only (N-terminal biotin on a linker: ado-ado)
T5 sequence (Q96JH8 971-1071, limits assumed, looked up): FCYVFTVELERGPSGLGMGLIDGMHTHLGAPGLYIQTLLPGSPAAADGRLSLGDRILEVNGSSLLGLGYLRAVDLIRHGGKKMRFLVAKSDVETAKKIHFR

Binder | pKd
B1 | below the threshold
B2 | 4.21

molecular target: Inadl_6, Q8NI35; assay: holdup assay; design: key: below the threshold = too weak to quantify, mostly under pKd 3.1 to 4; conditions: plain residues with an end cap or a label only (N-terminal biotin on a linker: ado-ado)
Sequence (Q8NI35 1058-1167): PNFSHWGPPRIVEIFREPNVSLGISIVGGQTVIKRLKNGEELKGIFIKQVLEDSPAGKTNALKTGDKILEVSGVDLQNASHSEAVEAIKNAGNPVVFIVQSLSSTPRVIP

Binder | pKd
B1 | below the threshold
B2 | below the threshold

molecular target: PDZRN4_1, Q6ZMN7; assay: holdup assay; design: key: below the threshold = too weak to quantify, mostly under pKd 3.1 to 4; conditions: plain residues with an end cap or a label only (N-terminal biotin on a linker: ado-ado)
Sequence (Q6ZMN7 213-318): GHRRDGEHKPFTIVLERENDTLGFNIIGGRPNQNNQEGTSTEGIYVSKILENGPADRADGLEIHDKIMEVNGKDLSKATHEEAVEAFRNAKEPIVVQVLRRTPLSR

Binder | pKd
B1 | below the threshold
B2 | below the threshold

molecular target: T6, GRIP1_3, Q9Y3R0; assay: holdup assay; design: key: below the threshold = too weak to quantify, mostly under pKd 3.1 to 4; conditions: plain residues with an end cap or a label only (N-terminal biotin on a linker: ado-ado)
T6 sequence (Q9Y3R0 247-346, limits assumed, looked up): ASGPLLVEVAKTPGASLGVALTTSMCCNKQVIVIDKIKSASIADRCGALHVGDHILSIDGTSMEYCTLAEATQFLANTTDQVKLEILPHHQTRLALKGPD

Binder | pKd
B1 | below the threshold
B2 | below the threshold

molecular target: Inadl_1, Q8NI35; assay: holdup assay; design: key: below the threshold = too weak to quantify, mostly under pKd 3.1 to 4; conditions: plain residues with an end cap or a label only (N-terminal biotin on a linker: ado-ado)
Sequence (Q8NI35 113-229): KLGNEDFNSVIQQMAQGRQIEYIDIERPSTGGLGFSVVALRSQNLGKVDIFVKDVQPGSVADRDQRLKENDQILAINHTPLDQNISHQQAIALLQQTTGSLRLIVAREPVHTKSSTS

Binder | pKd
B1 | below the threshold
B2 | below the threshold

molecular target: T7, DFNB31_1, Q9P202; assay: holdup assay; design: key: below the threshold = too weak to quantify, mostly under pKd 3.1 to 4; conditions: plain residues with an end cap or a label only (N-terminal biotin on a linker: ado-ado)
T7 sequence (Q9P202 135-233, limits assumed, looked up): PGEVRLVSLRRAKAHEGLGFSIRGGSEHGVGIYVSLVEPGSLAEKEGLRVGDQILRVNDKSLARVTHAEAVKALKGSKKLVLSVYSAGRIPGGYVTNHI

Binder | pKd
B1 | 3.67
B2 | below the threshold

molecular target: T8, SNTB1, Q13884; assay: holdup assay; design: key: below the threshold = too weak to quantify, mostly under pKd 3.1 to 4; conditions: plain residues with an end cap or a label only (N-terminal biotin on a linker: ado-ado)
T8 sequence (Q13884 107-205, limits assumed, looked up): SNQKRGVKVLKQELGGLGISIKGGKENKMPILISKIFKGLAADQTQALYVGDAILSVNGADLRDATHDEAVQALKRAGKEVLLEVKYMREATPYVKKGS

Binder | pKd
B1 | 3.94
B2 | below the threshold

molecular target: FRMPD4, Q14CM0; assay: holdup assay; design: key: below the threshold = too weak to quantify, mostly under pKd 3.1 to 4; conditions: plain residues with an end cap or a label only (N-terminal biotin on a linker: ado-ado)
Sequence (Q14CM0 67-160): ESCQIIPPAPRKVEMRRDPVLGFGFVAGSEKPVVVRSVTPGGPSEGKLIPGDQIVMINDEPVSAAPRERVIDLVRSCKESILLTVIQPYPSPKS

Binder | pKd
B1 | below the threshold
B2 | below the threshold

molecular target: DLG5_1, Q8TDM6; assay: holdup assay; design: key: below the threshold = too weak to quantify, mostly under pKd 3.1 to 4; conditions: plain residues with an end cap or a label only (N-terminal biotin on a linker: ado-ado)
Sequence (Q8TDM6 617-713): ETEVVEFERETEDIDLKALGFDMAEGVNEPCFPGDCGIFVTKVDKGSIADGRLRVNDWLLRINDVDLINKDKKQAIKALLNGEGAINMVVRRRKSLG

Binder | pKd
B1 | below the threshold
B2 | below the threshold

molecular target: MAGI1_2, Q96QZ7; assay: holdup assay; design: key: below the threshold = too weak to quantify, mostly under pKd 3.1 to 4; conditions: plain residues with an end cap or a label only (N-terminal biotin on a linker: ado-ado)
Sequence (Q96QZ7 456-580): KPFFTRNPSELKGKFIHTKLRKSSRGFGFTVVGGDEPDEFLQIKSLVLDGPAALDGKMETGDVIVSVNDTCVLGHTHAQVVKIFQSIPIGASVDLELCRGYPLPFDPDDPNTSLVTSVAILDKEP

Binder | pKd
B1 | below the threshold
B2 | below the threshold

molecular target: GORASP1, Q9BQQ3; assay: holdup assay; design: key: below the threshold = too weak to quantify, mostly under pKd 3.1 to 4; conditions: plain residues with an end cap or a label only (N-terminal biotin on a linker: ado-ado)
Sequence (Q9BQQ3 1-208): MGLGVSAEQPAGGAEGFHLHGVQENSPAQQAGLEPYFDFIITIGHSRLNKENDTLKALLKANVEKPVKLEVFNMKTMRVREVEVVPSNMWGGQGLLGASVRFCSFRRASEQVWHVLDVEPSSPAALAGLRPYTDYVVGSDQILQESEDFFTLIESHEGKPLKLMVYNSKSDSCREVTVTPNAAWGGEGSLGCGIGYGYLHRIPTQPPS

Binder | pKd
B1 | below the threshold
B2 | 5.07
